From patent US20240238446 come the findings set out here.

The target of data set [1] is mouse C3b/iC3b deposited from mouse serum on LPS, P01027.
mouse C3b/iC3b deposited from mouse serum on LPS, P01027, sequence (P01027 25-1663): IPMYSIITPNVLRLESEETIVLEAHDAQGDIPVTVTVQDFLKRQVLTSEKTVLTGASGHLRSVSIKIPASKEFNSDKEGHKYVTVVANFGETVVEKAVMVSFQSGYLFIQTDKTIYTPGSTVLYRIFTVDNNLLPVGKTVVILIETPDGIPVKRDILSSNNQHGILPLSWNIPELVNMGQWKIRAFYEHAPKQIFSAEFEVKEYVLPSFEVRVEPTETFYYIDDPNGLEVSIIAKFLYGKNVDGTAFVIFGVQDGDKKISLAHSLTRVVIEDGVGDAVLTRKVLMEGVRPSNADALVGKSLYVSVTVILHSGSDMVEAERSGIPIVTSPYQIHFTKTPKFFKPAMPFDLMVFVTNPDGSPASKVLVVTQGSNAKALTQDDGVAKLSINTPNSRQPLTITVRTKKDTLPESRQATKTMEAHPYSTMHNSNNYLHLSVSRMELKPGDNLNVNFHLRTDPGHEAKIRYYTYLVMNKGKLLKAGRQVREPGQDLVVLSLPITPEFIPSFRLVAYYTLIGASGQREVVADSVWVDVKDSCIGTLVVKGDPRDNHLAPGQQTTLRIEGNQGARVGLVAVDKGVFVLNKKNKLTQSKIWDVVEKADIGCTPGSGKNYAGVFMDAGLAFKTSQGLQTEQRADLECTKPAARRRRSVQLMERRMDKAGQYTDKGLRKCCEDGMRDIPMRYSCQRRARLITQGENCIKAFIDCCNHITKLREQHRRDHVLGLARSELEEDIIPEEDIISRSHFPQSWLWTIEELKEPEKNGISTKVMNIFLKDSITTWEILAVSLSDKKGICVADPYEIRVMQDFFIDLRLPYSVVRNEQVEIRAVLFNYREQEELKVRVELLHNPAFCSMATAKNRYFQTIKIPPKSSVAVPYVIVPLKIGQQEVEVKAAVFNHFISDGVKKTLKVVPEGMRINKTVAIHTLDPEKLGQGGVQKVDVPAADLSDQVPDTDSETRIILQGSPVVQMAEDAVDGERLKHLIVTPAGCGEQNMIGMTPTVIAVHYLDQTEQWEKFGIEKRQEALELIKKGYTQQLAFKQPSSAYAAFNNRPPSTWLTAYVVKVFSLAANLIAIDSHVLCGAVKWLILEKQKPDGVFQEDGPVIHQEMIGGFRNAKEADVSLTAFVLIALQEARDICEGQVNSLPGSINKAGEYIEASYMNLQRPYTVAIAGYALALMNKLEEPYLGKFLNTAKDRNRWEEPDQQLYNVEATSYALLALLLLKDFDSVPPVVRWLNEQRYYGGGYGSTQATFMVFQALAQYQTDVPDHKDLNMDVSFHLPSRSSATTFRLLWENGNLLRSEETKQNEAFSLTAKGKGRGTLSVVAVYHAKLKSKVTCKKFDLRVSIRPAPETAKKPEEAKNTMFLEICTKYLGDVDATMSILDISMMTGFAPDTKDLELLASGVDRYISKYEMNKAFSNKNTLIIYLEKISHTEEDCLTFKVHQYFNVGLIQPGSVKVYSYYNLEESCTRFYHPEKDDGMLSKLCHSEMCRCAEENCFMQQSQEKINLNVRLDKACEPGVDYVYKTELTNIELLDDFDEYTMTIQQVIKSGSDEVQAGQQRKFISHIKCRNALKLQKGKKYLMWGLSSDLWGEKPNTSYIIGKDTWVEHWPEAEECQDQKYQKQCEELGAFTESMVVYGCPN

human C3b, P01024, sequence (P01024 whole entry, looked up): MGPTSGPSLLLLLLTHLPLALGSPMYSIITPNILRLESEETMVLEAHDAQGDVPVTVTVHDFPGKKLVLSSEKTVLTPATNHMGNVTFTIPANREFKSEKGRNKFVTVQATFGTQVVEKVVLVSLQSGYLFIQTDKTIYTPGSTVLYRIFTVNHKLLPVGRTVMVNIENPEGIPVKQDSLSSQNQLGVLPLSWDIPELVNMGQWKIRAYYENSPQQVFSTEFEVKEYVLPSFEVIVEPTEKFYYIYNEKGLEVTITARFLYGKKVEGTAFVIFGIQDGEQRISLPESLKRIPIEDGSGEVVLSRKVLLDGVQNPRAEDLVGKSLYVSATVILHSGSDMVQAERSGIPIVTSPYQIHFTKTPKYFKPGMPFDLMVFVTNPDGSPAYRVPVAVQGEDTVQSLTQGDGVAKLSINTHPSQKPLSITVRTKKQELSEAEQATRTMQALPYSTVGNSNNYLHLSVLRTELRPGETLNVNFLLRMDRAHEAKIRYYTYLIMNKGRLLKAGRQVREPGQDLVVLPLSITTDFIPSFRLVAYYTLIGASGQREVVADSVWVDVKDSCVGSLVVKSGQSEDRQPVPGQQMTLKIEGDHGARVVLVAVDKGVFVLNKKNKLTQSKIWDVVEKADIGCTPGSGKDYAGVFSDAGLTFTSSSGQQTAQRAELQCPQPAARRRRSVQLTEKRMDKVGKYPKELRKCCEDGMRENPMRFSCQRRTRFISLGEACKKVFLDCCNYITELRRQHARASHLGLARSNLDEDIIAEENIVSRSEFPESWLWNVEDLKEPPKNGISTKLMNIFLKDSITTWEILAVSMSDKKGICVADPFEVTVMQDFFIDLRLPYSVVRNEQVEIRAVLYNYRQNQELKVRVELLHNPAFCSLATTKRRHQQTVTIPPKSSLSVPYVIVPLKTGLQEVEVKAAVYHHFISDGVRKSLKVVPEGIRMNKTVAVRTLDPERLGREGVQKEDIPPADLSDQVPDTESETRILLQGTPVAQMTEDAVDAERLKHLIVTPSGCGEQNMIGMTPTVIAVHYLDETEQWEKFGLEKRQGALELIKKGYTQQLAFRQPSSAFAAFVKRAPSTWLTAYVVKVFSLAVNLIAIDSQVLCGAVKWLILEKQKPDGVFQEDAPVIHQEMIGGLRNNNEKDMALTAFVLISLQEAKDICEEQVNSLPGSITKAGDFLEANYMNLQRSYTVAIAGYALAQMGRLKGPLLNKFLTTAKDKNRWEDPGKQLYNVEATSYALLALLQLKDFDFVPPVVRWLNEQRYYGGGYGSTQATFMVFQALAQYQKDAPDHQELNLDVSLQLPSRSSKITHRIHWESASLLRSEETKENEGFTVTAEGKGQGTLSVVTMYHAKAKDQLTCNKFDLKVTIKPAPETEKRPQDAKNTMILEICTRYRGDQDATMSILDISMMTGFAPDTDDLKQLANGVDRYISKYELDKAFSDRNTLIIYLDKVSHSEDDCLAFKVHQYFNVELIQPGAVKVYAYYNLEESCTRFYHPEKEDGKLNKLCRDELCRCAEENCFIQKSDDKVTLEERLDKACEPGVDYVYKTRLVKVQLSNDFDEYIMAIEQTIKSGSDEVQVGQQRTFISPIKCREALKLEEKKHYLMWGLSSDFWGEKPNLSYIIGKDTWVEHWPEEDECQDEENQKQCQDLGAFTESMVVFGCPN

B1: mouse Factor I in mouse serum (protein)
chain: RSPSASDLPQEELVDQKCLLQKYTHRSCNKVFCQPWQRCIEGTCICKLPYQCPRAGTPVCAMNGRSYPTYCHQKSFECLHPEIKFSHNGTCAAEGKFNVSLIYGRTKTEGLVQVKLVDQDERMFICKNSWSMAEANVACVDLGFPLGVRDIQGSFNISGNLHINDTECLHVHCRGVETSLAECAFTKRRTELSNGLAGVVCYKQDADFPTSLSFQCVNGKHIPQEKACNGVNDCGDQSDELCCKGCRGNASLCKSGVCIPDQYKCNGEVDCITGEDESRCEEDRQQNIPKGLARSAQGEAEIETEETEMLTPGMDNERKRIKSLLPKLSCGVKRNTHTRRKRVIGGKPANVGDYPWQVAIKDGQRITCGGIYIGGCWILTAAHCVRPSRAHSYQVWTALLDWLKPNSQLGIQTVKRVIVHEKYNGATFQNDIALIEMKMHTGKKECELPNSVPACVPWSPYLFQPNDRCIISGWGRGKDNQKVYSLRWGEVDLIGNCSQFYPDRYYEKEMQCAGTRDGSIDACKGDSGGPLVCEDINNVTYVWGIVSWGENCGKPEFPGVYTRVANYFDWISYHVGRSLVSQHNV
On to B1, for which, in the data set with human C3b, P01024, the “in vitro C3b and iC3b cleavage assay (western blot with clone 9, generation of C3dg; human Factor H as cofactor, 30 minutes)” value is “more efficiently cleaved to C3dg within the incubation period in the AAV_FI medium and AAV_FI high group”. Besides, in data set [1], the “C3b/iC3b deposition on LPS-coated plate, reduction, serum of AAV high FI group” value is reported as “by 50% in the AAV % high FI group”; the “C3b/iC3b deposition on LPS-coated plate, reduction, serum of AAV_low FI group” value is on record as “reduced by 11% in the AAV_low FI”; the “C3b/iC3b deposition on LPS-coated plate, reduction, serum of AAV_medium FI group” value is “by 38% in the AAV_medium FI”.
